Earlier results in paper PMC12608641.

Target: p55 (Homo sapiens) (UniProt Q9UHN1)
Test: ultracentrifugation

Substance: p55 (from UniProt Q9UHN1)
- Kd: < 0.1 nM
